Reference: patent US20110144007A1 (IPSEN PHARMA S A S, published 2011)
Non-standard residues stand in square brackets, D forms with d. No end group written: not given here. *: point of attachment. Psu = N-propylsuccinimide on Cys S (Cys alkylated with N-propylmaleimide), CCCN1C(=O)CC(*)C1=O; Myristoyl = CCCCCCCCCCCCCC(=O)*; Ac6c = NC1(C(=O)O)CCCCC1; Nle = CCCC[C@H](N)C(=O)O; Orn = NCCC[C@H](N)C(=O)O; Ac5c = NC1(C(=O)O)CCCC1; Aib = CC(C)(N)C(=O)O

T1: human recombinant GIP receptor (human, UniProt P48546 22-466)
T1 construct: whole, on cells; Assayed as washed membrane preparations of CHO-K1 clonal cells expressing the receptor; also called hGIP receptor
T1 sequence (looked up): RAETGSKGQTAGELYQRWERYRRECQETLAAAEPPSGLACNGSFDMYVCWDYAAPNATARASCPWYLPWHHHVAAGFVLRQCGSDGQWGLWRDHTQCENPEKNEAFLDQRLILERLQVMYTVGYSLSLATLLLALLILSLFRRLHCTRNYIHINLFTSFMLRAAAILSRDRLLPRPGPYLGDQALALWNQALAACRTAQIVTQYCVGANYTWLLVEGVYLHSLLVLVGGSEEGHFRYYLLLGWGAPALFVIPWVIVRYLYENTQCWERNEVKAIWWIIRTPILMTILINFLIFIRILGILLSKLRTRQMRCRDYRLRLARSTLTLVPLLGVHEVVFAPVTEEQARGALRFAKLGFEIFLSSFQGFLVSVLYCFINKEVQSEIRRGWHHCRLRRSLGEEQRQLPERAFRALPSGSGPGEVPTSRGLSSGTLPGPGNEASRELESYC

B1: (Aib^13, Nle^14, Phe^43)hGIP(1-43)-OH (peptide)
peptide: YAEGTFISDYSI[Aib][Nle]DKIHQQDFVNWLLAQKGKKNDWKHNITQF-OH
notes: Synthetic analogue of human GIP with an added Phe at position 43
B2: [A5c^11, Lys^43(N-C(O)-(CH2)10-CH3)]hGIP(1-43)-OH (peptide)
peptide: YAEGTFISDYXIAMDKIHQQDFVNWLLAQKGKKNDWKHNITQK
modifications: A5c at 11; Lys(N-C(O)-(CH2)10-CH3) at 43; C-terminal free acid
notes: Synthetic acylated analogue of human GIP
B3: (A5c^11, Ala^43)hGIP(1-43)-OH (peptide)
peptide: YAEGTFISDYXIAMDKIHQQDFVNWLLAQKGKKNDWKHNITQA
modifications: A5c at 11; C-terminal free acid
notes: Synthetic analogue of human GIP with an added Ala at position 43
B4: (A5c^11, Asn^43)hGIP(1-43)-OH (peptide)
peptide: YAEGTFISDYXIAMDKIHQQDFVNWLLAQKGKKNDWKHNITQN
modifications: A5c at 11; C-terminal free acid
notes: Synthetic analogue of human GIP with an added Asn at position 43
B5: (A5c^11, His^43)hGIP(1-43)-OH (peptide)
peptide: YAEGTFISDYXIAMDKIHQQDFVNWLLAQKGKKNDWKHNITQH
modifications: A5c at 11; C-terminal free acid
notes: Synthetic analogue of human GIP with an added His at position 43
B6: (A5c^11, Thr^43)hGIP(1-43)-OH (peptide)
peptide: YAEGTFISDYXIAMDKIHQQDFVNWLLAQKGKKNDWKHNITQT
modifications: A5c at 11; C-terminal free acid
notes: Synthetic analogue of human GIP with an added Thr at position 43
B7: (A6c^11, 14, 41)hGIP(1-42)-OH (peptide)
peptide: YAEGTFISDYXIAXDKIHQQDFVNWLLAQKGKKNDWKHNIXQ
modifications: A6c (1-amino-1-cyclohexanecarboxylic acid) at 11, 14 and 41; C-terminal free acid
notes: Synthetic analogue of human GIP
B8: (Aib^13, Asp^43)hGIP(1-43)-NH2 (peptide)
peptide: YAEGTFISDYSIXMDKIHQQDFVNWLLAQKGKKNDWKHNITQD
modifications: Aib (alpha-aminoisobutyric acid) at 13; C-terminal amide
notes: Synthetic analogue of human GIP with an added Asp at position 43
B9: (Aib^13, Trp^43)hGIP(1-43)-OH (peptide)
peptide: YAEGTFISDYSIXMDKIHQQDFVNWLLAQKGKKNDWKHNITQW
modifications: Aib at 13; C-terminal free acid
notes: Synthetic analogue of human GIP with an added Trp at position 43
B10: (A5c^11, 41, Cys^32)hGIP(1-42)-NH2 (peptide)
peptide: YAEGTFISDYXIAMDKIHQQDFVNWLLAQKGCKNDWKHNIXQ
modifications: A5c at 11 and 41; C-terminal amide
notes: Synthetic analogue of human GIP with Cys at position 32
B11: (A5c^11, 41, Cys^33)hGIP(1-42)-NH2 (peptide)
peptide: YAEGTFISDYXIAMDKIHQQDFVNWLLAQKGKCNDWKHNIXQ
modifications: A5c at 11 and 41; C-terminal amide
notes: Synthetic analogue of human GIP with Cys at position 33
B12: [A5c^11,41, Cys^32(succinimide-N-20K PEG)]hGIP(1-42)-NH2 (peptide)
peptide: YAEGTFISDYXIAMDKIHQQDFVNWLLAQKGCKNDWKHNIXQ
modifications: A5c at 11 and 41; Cys(succinimide-N-20K PEG) at 32; C-terminal amide
notes: Synthetic PEGylated analogue of human GIP
B13: (A5c^11, 14, His^43)hGIP(1-43)-OH (peptide)
peptide: YAEGTFISDYXIAXDKIHQQDFVNWLLAQKGKKNDWKHNITQH
modifications: A5c at 11 and 14; C-terminal free acid
notes: as for B5
B14: (A5c^11, Nle^14, His^43)hGIP(1-43)-OH (peptide)
peptide: YAEGTFISDYXIAXDKIHQQDFVNWLLAQKGKKNDWKHNITQH
modifications: A5c at 11; Nle at 14; C-terminal free acid
notes: as for B5
B15: (A5c^11)hGIP(1-30)-NH2 (peptide)
peptide: YAEGTFISDYXIAMDKIHQQDFVNWLLAQK
modifications: A5c at 11; C-terminal amide
notes: Synthetic truncated analogue of human GIP
B16: (A5c^11, His^31)hGIP(1-31)-NH2 (peptide)
peptide: YAEGTFISDYXIAMDKIHQQDFVNWLLAQKH
modifications: A5c at 11; C-terminal amide
notes: Synthetic truncated analogue of human GIP with His at position 31
B17: (A5c^11, 14)hGIP(1-30)-NH2 (peptide)
peptide: YAEGTFISDYXIAXDKIHQQDFVNWLLAQK
modifications: A5c at 11 and 14; C-terminal amide
notes: as for B15
B18: (A5c^11, 41, Cys^43)hGIP(1-43)-NH2 (peptide)
peptide: YAEGTFISDYXIAMDKIHQQDFVNWLLAQKGKKNDWKHNIXQC
modifications: A5c at 11 and 41; C-terminal amide
notes: Synthetic analogue of human GIP with an added Cys at position 43
B19: [A5c^11, Orn^32(N-C(O)-(CH2)10-CH3), His^43]hGIP(1-43)-OH (peptide)
peptide: YAEGTFISDYXIAMDKIHQQDFVNWLLAQKGXKNDWKHNITQH
modifications: A5c at 11; Orn(N-C(O)-(CH2)10-CH3) at 32; C-terminal free acid
notes: Synthetic acylated analogue of human GIP with an added His at position 43
B20: [A5c^11, Orn^33(N-C(O)-(CH2)10-CH3), His^43]hGIP(1-43)-OH (peptide)
peptide: YAEGTFISDYXIAMDKIHQQDFVNWLLAQKGKXNDWKHNITQH
modifications: A5c at 11; Orn(N-C(O)-(CH2)10-CH3) at 33; C-terminal free acid
notes: as for B19
B21: [A5c^11, Lys^43(N-C(O)-(CH2)14-CH3)]hGIP(1-43)-OH (peptide)
peptide: YAEGTFISDYXIAMDKIHQQDFVNWLLAQKGKKNDWKHNITQK
modifications: A5c at 11; Lys(N-C(O)-(CH2)14-CH3) at 43; C-terminal free acid
notes: as for B2
B22: [A5c^11, Orn^32(N-C(O)-(CH2)14-CH3), His^43]hGIP(1-43)-OH (peptide)
peptide: YAEGTFISDYXIAMDKIHQQDFVNWLLAQKGXKNDWKHNITQH
modifications: A5c at 11; Orn(N-C(O)-(CH2)14-CH3) at 32; C-terminal free acid
notes: as for B2
B23: [A5c^11, Orn^33(N-C(O)-(CH2)14-CH3), His^43]hGIP(1-43)-OH (peptide)
peptide: YAEGTFISDYXIAMDKIHQQDFVNWLLAQKGKXNDWKHNITQH
modifications: A5c at 11; Orn(N-C(O)-(CH2)14-CH3) at 33; C-terminal free acid
notes: as for B2
B24: [A5c^11,41, Cys^43(succinimide-N-20K PEG)]hGIP(1-43)-NH2 (peptide)
peptide: YAEGTFISDYXIAMDKIHQQDFVNWLLAQKGKKNDWKHNIXQC
modifications: A5c at 11 and 41; Cys(succinimide-N-20K PEG) at 43; C-terminal amide
notes: as for B12
B25: [A5c^11,41, Cys^43(succinimide-N-30K PEG)]hGIP(1-43)-NH2 (peptide)
peptide: YAEGTFISDYXIAMDKIHQQDFVNWLLAQKGKKNDWKHNIXQC
modifications: A5c at 11 and 41; Cys(succinimide-N-30K PEG) at 43; C-terminal amide
notes: as for B12

molecular target: T1, human recombinant GIP receptor; assay: displacement of [125I]GIP from membranes of CHO-K1 cells expressing human recombinant GIP receptor

First: B1
Second: B2
The Ki of the first is 3.8-fold higher: 3.15 nM for the first, 0.83 nM for the second. The second binds more tightly here.

Compared with B3, B4 is 16-fold lower in Ki: 3.43 nM for the first, 0.21 nM for the second. The second binds more tightly here.

Compared with B5, B6 is 5.8-fold higher in Ki: 0.54 nM for the first, 3.13 nM for the second. The first binds more tightly here.

Compared with B7, B8 is 7.9-fold lower in Ki: 4.72 nM for the first, 0.6 nM for the second.

Going from B9 to YAEGTFISDYXIAMDKIHQQDFVNWLLAQKGKKNDWKHNITQX (A5c at 11; Ado (12-aminododecanoic acid) at 43; C-terminal free acid, Synthetic analogue of human GIP) [(A5c^11, Ado^43)hGIP(1-43)-OH], the Ki rises from 2.76 nM to 31.6 nM (11-fold).

Compared with YAEGTFISDYXIAXDKIHQQDFVNWLLAQKGKKNDWKHNXTQ (A6c at 11, 14 and 40; C-terminal free acid, Synthetic analogue of human GIP) [(A6c^11, 14, 40)hGIP(1-42)-OH], YAEGTF[Ac6c]SDYSIAMDKIHQQDFVNWLLAQKGKKNDWKHNITC(Psu)-OH (Synthetic analogue of human GIP) [[A6c^7, Cys(Psu)^42]hGIP(1-42)-OH] is 23-fold higher in Ki: 1.3 nM for the first, 30.4 nM for the second. The first binds more tightly here.

Compared with YAEGTF[Ac6c]SDYSIAMDKIHQQDFVNWLLAQKGKKNDWKHNI[Ac6c]Q-OH (Synthetic analogue of human GIP) [(A6c^7, 41)hGIP(1-42)-OH], YAEGTF[Ac6c]SDYSIA[Nle]DKIHQQDFVNWLLAQKGKKNDWKHNI[Ac6c]Q-OH (Synthetic analogue of human GIP) [(A6c^7, 41, Nle^14)hGIP(1-42)-OH] is 3-fold higher in Ki: 8.79 nM for the first, 26.1 nM for the second.

Going from YAEGTF[Ac6c]SDYSIAMDKIHQQDFVNWLLAQKGKKN[Orn](Myristoyl)WKHNITQ-OH (Synthetic analogue of human GIP) [[A6c^7, Orn^35(N-C(O)-(CH2)12-CH3)]hGIP(1-42)-OH] to YAEGTFISDYXIAMDKIHQQDFVNWLLAQKGKKNDWKHNIXQ (A5c (1-amino-1-cyclopentanecarboxylic acid) at 11 and 41; C-terminal free acid, Synthetic analogue of human GIP) [(A5c^11, 41)hGIP(1-42)-OH], the Ki falls from 10.3 nM to 0.12 nM (86-fold). The second binds more tightly here.

B10 and B11 are within 1.5-fold of each other in Ki: 0.9 nM for the first, 1.05 nM for the second.

Going from B12 to YAEGTF[Ac6c]SDYSIAMDKIHQQDFVNWLLAQK[Orn](Myristoyl)KKNDWKHNITQ-OH (Synthetic analogue of human GIP) [[A6c^7, Orn^31(N-C(O)-(CH2)12-CH3)]hGIP(1-42)-OH], the Ki rises from 0.7 nM to 18.1 nM (26-fold).

B13 and B14 are within 1.5-fold of each other in Ki: 0.59 nM for the first, 0.72 nM for the second.

First: B15
Second: B16
The Ki of the first is 1.9-fold higher: 0.82 nM for the first, 0.44 nM for the second.

Going from B17 to B18, the Ki falls from 0.78 nM to 0.51 nM (1.5-fold). The second binds more tightly here.

First: B19
Second: YAEGTFISDYXIAMDKIHQQDFVNWLLAQKGKKNDWKHNXTQ (A5c at 11 and 40; C-terminal free acid, Synthetic analogue of human GIP) [(A5c^11, 40)hGIP(1-42)-OH]
The Ki of the first is 8.5-fold higher: 5.3 nM for the first, 0.62 nM for the second. The second binds more tightly here.

Compared with B20, B21 is 7.3-fold lower in Ki: 9.1 nM for the first, 1.25 nM for the second.

Compared with B22, B23 is 1.6-fold lower in Ki: 41.6 nM for the first, 26.4 nM for the second. The second binds more tightly here.

B24 and B25 are within 1.5-fold of each other in Ki: 0.7 nM for the first, 0.69 nM for the second.

First: YAEGTFISDYSI[Aib][Nle]DKIHQQDFVNWLLAQKGKKNDWKHN[Ac5c]TQ-OH (Synthetic analogue of human GIP) [(Aib^13, Nle^14, A5c^40)hGIP(1-42)-OH]
Second: YAEGTFISDYSIXMDKIHQQDFVNWLLAQKGKKNDWKHNXTQ (Aib at 13; A5c at 40; C-terminal free acid, Synthetic analogue of human GIP) [(Aib^13, A5c^40)hGIP(1-42)-OH]
The Ki of the first is 25-fold lower: 0.23 nM for the first, 5.74 nM for the second.
